Source: patent US20120316071A1 (published 2012)
Each block holds one binder with its values, some of them ahead of it.

How the values were obtained:
[1] = biological target: T1, rHuman Erythropoietin R/Fc Chimera, CF (R&D Systems Cat#963-ER) (human, UniProt P19235 25-250); assay: MSD multispot ECL, antigen spotted on plate; Fab 0.07438 uM; blank spot 2504
T1 construct: Bought recombinant protein; also called EPO R/Fc; Epo R; Fc part of the bought chimera not given
T1 sequence (looked up): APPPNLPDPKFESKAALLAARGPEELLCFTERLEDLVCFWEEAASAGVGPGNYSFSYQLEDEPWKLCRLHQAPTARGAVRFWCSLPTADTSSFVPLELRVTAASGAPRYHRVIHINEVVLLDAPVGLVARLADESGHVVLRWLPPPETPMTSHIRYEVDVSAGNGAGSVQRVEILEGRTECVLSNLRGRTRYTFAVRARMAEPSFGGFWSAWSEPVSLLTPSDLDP

[2] = biological target: T2, rHuman Notch-1/Fc Chimera, CF (R&D Systems Cat#3647-TK) (human, UniProt P46531 19-526); assay: as above
T2 construct: Bought recombinant protein; Fc part of the bought chimera not given

[3] = biological target: T3, rHuman P-Cadherin/Fc Chimera, CF (R&D Systems Cat#861-PC) (human, UniProt P22223 108-654); assay: as above
T3 construct: Bought recombinant protein; Fc part of the bought chimera not given

[4] = biological target: T4, rHuman EGF R/Fc Chimera, CF (R&D Systems Cat#344-ER) (human, UniProt P00533 25-645); assay: as above
T4 construct: Bought recombinant protein; also called epidermal growth factor receptor; Fc part of the bought chimera not given

[5] = biological target: T5, Recombinant Human DLL4 (R&D Systems Cat#1506-D4/CF) (human, UniProt Q9NR61 27-524); assay: as above
T5 construct: Bought recombinant protein; also called delta-like protein 4; rHuman DLL4

[6] = biological target: T1, rHuman Erythropoietin R/Fc Chimera, CF …; assay: MSD multispot ECL, antigen spotted on plate; Fab 0.01859 uM; blank spot 1776
[7] = biological target: T2, rHuman Notch-1/Fc Chimera, CF (R&D …); assay: as above
[8] = biological target: T3, rHuman P-Cadherin/Fc Chimera, CF (R&D …); assay: as above
[9] = biological target: T4, rHuman EGF R/Fc Chimera, CF (R&D …); assay: as above
[10] = biological target: T5, Recombinant Human DLL4 (R&D Systems …); assay: as above
[11] = biological target: T1, rHuman Erythropoietin R/Fc Chimera, CF …; assay: MSD multispot ECL, antigen spotted on plate; Fab 1.19 uM; blank spot 24999
[12] = biological target: T2, rHuman Notch-1/Fc Chimera, CF (R&D …); assay: as above
[13] = biological target: T3, rHuman P-Cadherin/Fc Chimera, CF (R&D …); assay: as above
[14] = biological target: T4, rHuman EGF R/Fc Chimera, CF (R&D …); assay: as above
[15] = biological target: T5, Recombinant Human DLL4 (R&D Systems …); assay: as above
[16] = biological target: T1, rHuman Erythropoietin R/Fc Chimera, CF …; assay: MSD multispot ECL, antigen spotted on plate; Fab 0.2975 uM; blank spot 5019
[17] = biological target: T2, rHuman Notch-1/Fc Chimera, CF (R&D …); assay: as above
[18] = biological target: T3, rHuman P-Cadherin/Fc Chimera, CF (R&D …); assay: as above
[19] = biological target: T4, rHuman EGF R/Fc Chimera, CF (R&D …); assay: as above
[20] = biological target: T5, Recombinant Human DLL4 (R&D Systems …); assay: as above
[21] = biological target: T6, rHuman IGF-1 sR, (IGF-1 sR), CF (R&D Systems Cat#391-GR) (human, UniProt P08069 31-932); assay: Multispot ECL (MSD) assay, antigen spotted on plate, Fab at 0.48 µM; blank spot 2945
T6 construct: Bought recombinant soluble receptor; also called insulin-like growth factor-1 soluble receptor

[22] = biological target: T6, rHuman IGF-1 sR, (IGF-1 sR), CF (R&D …); assay: Multispot ECL (MSD) assay, antigen spotted on plate, Fab at 0.0192 µM; blank spot 751
[23] = biological target: T6, rHuman IGF-1 sR, (IGF-1 sR), CF (R&D …); assay: Multispot ECL (MSD) assay, antigen spotted on plate, Fab at 0.096 µM; blank spot 917
[24] = biological target: T7, full-length human DLL4 expressed on the surface of CHO cells (human, UniProt Q9NR61 26-685); assay: flow cytometry; 250 nM biotinylated Notch-Fc on CHO-DLL4 cells, streptavidin-PE; no-Fab baseline of the blocking series
T7 construct: also called CHO-DLL4; DLL4-expressing CHO cells

ECL signal [1]: 154000 | ECL signal [2]: 22000 | ECL signal [3]: 14800 | ECL signal [4]: 16600 | ECL signal [5]: 20700 | ECL signal [6]: 188000 | ECL signal [7]: 17600 | ECL signal [8]: 11700 | ECL signal [9]: 11800 | ECL signal [10]: 18900 | ECL signal [11]: 193000 | ECL signal [12]: 72000 | ECL signal [13]: 69700 | ECL signal [14]: 62500 | ECL signal [15]: 74900 | ECL signal [16]: 167000 | ECL signal [17]: 37500 | ECL signal [18]: 26000 | ECL signal [19]: 42200 | ECL signal [20]: 34700
B1: Fab VH1-46_IGHD6-13*01_IGHJ4*01 & L2_IGKJ1*01 (Fab, V domains shown)
VH: QVQLVQSGAEVKKPGASVKVSCKASGYTFTSYYMHWVRQAPGQGLEWMGIINPSGGSTSYAQKFQGRVTMTRDTSTSTVYMELSSLRSEDTAVYYCAREGYSSSWYDYFDYWGQGTLVTVSS
VL: not shown
notes: Germline library Fab expressed in E. coli; VH was cloned into Plasmid A, which adds CH1 with His6 and Flag tags

ECL signal [21]: 8930 | ECL signal [22]: 1830 | ECL signal [23]: 2450
B2: Fab VH1-46_IGHD6-13*01_IGHJ4*01 & A27_IGKJ1*01 (Fab, V domains shown)
VH: B1 VH
VL: not shown
notes: Germline Fab made in E. coli; VH was cloned in Plasmid A (CH1 constant region, His6 and Flag tags) and the kappa VL in Plasmid C (kappa CL); Only the variable domains are tied to this Fab by name

signal of biotinylated Notch-Fc bound to CHO-DLL4 cells without Fab (read-out not given) [24]: 531
B3: rHuman Notch-1/Fc Chimera (Fc fusion)
chain: ARGPRCSQPGETCLNGGKCEAANGTEACVCGGAFVGPRCQDPNPCLSTPCKNAGTCHVVDRRGVADYACSCALGFSGPLCLTPLDNACLTNPCRNGGTCDLLTLTEYKCRCPPGWSGKSCQQADPCASNPCANGGQCLPFEASYICHCPPSFHGPTCRQDVNECGQKPGLCRHGGTCHNEVGSYRCVCRATHTGPNCERPYVPCSPSPCQNGGTCRPTGDVTHECACLPGFTGQNCEENIDDCPGNNCKNGGACVDGVNTYNCRCPPEWTGQYCTEDVDECQLMPNACQNGGTCHNTHGGYNCVCVNGWTGEDCSENIDDCASAACFHGATCHDRVASFYCECPHGRTGLLCHLNDACISNPCNEGSNCDTNPVNGKAICTCPSGYTGPACSQDVDECSLGANPCEHAGKCINTLGSFECQCLQGYTGPRCEIDVNECVSNPCQNDATCLDQIGEFQCICMPGYEGVHCEVNTDECASSPCLHNGRCLDKINEFQCECPTGFTGHLCQ
notes: Bought from R&D Systems (Cat#3647-TK); also called Notch-Fc; Notch-FC; Fc part of the bought chimera not given
